According to patent US20210284724A1:

Assays:
Test in all cases: alanine scan, flow cytometry on transfected cells
[1] = biological target: human CXCL13 R24A (human) (UniProt O43927)
[2] = biological target: human CXCL13 F25A (human) (UniProt O43927)
[3] = biological target: human CXCL13 P22A (human) (UniProt O43927)
[4] = biological target: human CXCL13 F20A (human) (UniProt O43927)
Chain of human CXCL13 F20A (human) (O43927 23-109 F42A): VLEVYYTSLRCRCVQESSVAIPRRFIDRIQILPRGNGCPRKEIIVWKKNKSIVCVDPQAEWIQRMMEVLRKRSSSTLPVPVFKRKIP

Chain of human CXCL13 P22A (human) (O43927 23-109 P44A): as the sequence (O43927 23-109 F42A) above, with A20F, P22A counted along it
Chain of human CXCL13 R24A (human) (O43927 23-109 R46A): as the sequence (O43927 23-109 F42A) above, with A20F, R24A counted along it
Chain of human CXCL13 F25A (human) (O43927 23-109 F47A): as the sequence (O43927 23-109 F42A) above, with A20F, F25A counted along it

Control Fab
Binding reactivity (% WT) [1]: 88 % WT | Binding reactivity (% WT) [2]: 127 % WT | Binding reactivity (% WT) [3]: 97.4 % WT | Binding reactivity (% WT) [4]: 110 % WT
